Consider seven molecules from patent publication US20190194347A1, “ANTIBODIES FOR EPIDERMAL GROWTH FACTOR RECEPTOR 3 (HER3)” (NOVARTIS AG, priority 2010, published 2019).

The target of experiment [1] is endogenous human HER3 on human cancer cells (SK-Br-3, MCF7, BT-474) (human, UniProt P21860 20-1342). Put plainly: cell-based or functional assay.
The target in experiment [2] is T1, HER3 K267A (CD33-[Human HER3, residues 20-640, K267A]-TAG) (human, UniProt P21860 20-640).
T1 construct: also called HER3 K267A-Tag; not shown: C-terminal TAG (e.g., FLAG TAG)
Put plainly: ELISA titration on coated recombinant mutant HER3. A general note: ELISA stands for enzyme-linked immunosorbent assay.

For experiment [3], the target named is T2, HER3 L268A (CD33-[Human HER3, residues 20-640, L268A]-TAG) (human, UniProt P21860 20-640).
T2 construct: also called HER3 L268A-Tag; not shown: C-terminal TAG (e.g., FLAG TAG)
Description: ELISA titration on coated recombinant mutant HER3.

B1: MOR09823 (antibody, V domains shown)
VH: QVQLVESGGGLVQPGGSLRLSCAASGFTFSSYAMSWVRQAPGKGLEWVSVTGAVGRTYYPDSVKGRFTISRDNSKNTLYLQMNSLRAEDTAVYYCARWGDEGFDIWGQGTLVTVSS
VL: DIQMTQSPSSLSASVGDRVTITCRASQGISNWLAWYQQKPGKAPKLLIYGASSLQSGVPSRFSGSGSGTDFTLTISSLQPEDFAVYYCQQYSSFPTTFGQGTKVEIKR
As for B1, in experiment [1], the “% inhibition of proliferation, BT-474, 10 µg/ml IgG” value (“% inhibition … BT-474, 10 µg/ml IgG” below) is 39.8%; the “% inhibition of proliferation, MCF7 (neuregulin stimulated), 10 µg/ml IgG” value (“% inhibition of proliferation, MCF7” below) was 82%; the “% inhibition of proliferation, SK-Br-3, 10 µg/ml IgG” value (“% inhibition … SK-Br-3, 10 µg/ml IgG” for short) is 39%.

B2: MOR10702 (antibody, human IgG1, kappa, V domains shown)
VH: EVQLLESGGGLVQPGGSLRLSCAASGFTFSSYAMSWVRQAPGKGLEWVSVISAWGHVKYYADSVKGRFTISRDNSKNTLYLQMNSLRAEDTAVYYCARWGDEGFDIWGQGTLVTVSS
VL: DIQMTQSPSSLSASVGDRVTITCRASQGISNWLAWYQQKPGKAPKLLIYGASSLQSGVPSRFSGSGSGTDFTLTISSLQPEDFATYYCQQYSSFPTTFGQGTKVEIKR
Regarding B2, the “% inhibition … BT-474, 10 µg/ml IgG” value in experiment [1] turned out to be 43.8%.

B3: MOR09825 (antibody, human IgG1, kappa, V domains shown)
VH: QVQLVESGGGLVQPGGSLRLSCAASGFTFSSYAMSWVRQAPGKGLEWVSAINSQGKSTYYADSVKGRFTISRDNSKNTLYLQMNSLRAEDTAVYYCARWGDEGFDIWGQGTLVTVSS
VL: DIQMTQSPSSLSASVGDRVTITCRASQGISNWLAWYQQKPGKAPKLLIYGASSLQSGVPSRFSGSGSGTDFTLTISSLQPEDFAVYYCQQYSSFPTTFGQGTKVEIKR
Turning to B3, in experiment [1], the “% inhibition … BT-474, 10 µg/ml IgG” value was 37.2%; the “% inhibition of proliferation, MCF7” value came to 63%; the “% inhibition … SK-Br-3, 10 µg/ml IgG” value stood at 41%.

B4: MOR09824 (antibody, human IgG1, kappa, V domains shown)
VH: QVQLVESGGGLVQPGGSLRLSCAASGFTFSSYAMSWVRQAPGKGLEWVSVISAWGHVKYYADSVKGRFTISRDNSKNTLYLQMNSLRAEDTAVYYCARWGDEGFDIWGQGTLVTVSS
VL: DIQMTQSPSSLSASVGDRVTITCRASQGISNWLAWYQQKPGKAPKLLIYGASSLQSGVPSRFSGSGSGTDFTLTISSLQPEDFAVYYCQQYSSFPTTFGQGTKVEIKR
As for B4, in experiment [1], the “% inhibition … BT-474, 10 µg/ml IgG” value is 36.8%; the “% inhibition of proliferation, MCF7” value is 82%; the “% inhibition … SK-Br-3, 10 µg/ml IgG” value worked out at 33%.

B5: MOR09974 (antibody, human IgG1, kappa, V domains shown)
VH: QVQLVESGGGLVQPGGSLRLSCAASGFTFSSYAMSWVRQAPGKGLEWVSVINPSGNFTNYADSVKGRFTISRDNSKNTLYLQMNSLRAEDTAVYYCARWGDEGFDIWGQGTLVTVSS
VL: DIQMTQSPSSLSASVGDRVTITCRASQGISNWLAWYQQKPGKAPKLLIYGASSLQSGVPSRFSGSGSGTDFTLTISSLQPEDFAVYYCQQYSSFPTTFGQGTKVEIKR
With B5, in experiment [1], the “% inhibition of proliferation, MCF7” value stood at 20% and the “% inhibition … SK-Br-3, 10 µg/ml IgG” value was found to be 35%.

B6: MOR10703 (antibody, human IgG1, kappa, V domains shown)
VH: EVQLLESGGGLVQPGGSLRLSCAASGFTFSSYAMSWVRQAPGKGLEWVSAINSQGKSTYYADSVKGRFTISRDNSKNTLYLQMNSLRAEDTAVYYCARWGDEGFDIWGQGTLVTVSS
VL: DIQMTQSPSSLSASVGDRVTITCRASQGISNWLAWYQQKPGKAPKLLIYGASSLQSGVPSRFSGSGSGTDFTLTISSLQPEDFATYYCQQYSSFPTTFGQGTKVEIKR
Consider B6, for which, in experiment [1], the “% inhibition … BT-474, 10 µg/ml IgG” value came out at 41.6%; the “% inhibition of proliferation, MCF7” value came out at 81%; the “% inhibition … SK-Br-3, 10 µg/ml IgG” value is 35%. Moreover, the binding result in experiment [2] is listed as “no binding (tested: up to 10 µg/mL antibody (Example 7))”. Besides, the binding result in experiment [3] is recorded as “no binding (tested: up to 10 µg/mL antibody (Example 7))”.

B7: MOR10701 (antibody, human IgG1, kappa, V domains shown)
VH: EVQLLESGGGLVQPGGSLRLSCAASGFTFSSYAMSWVRQAPGKGLEWVSVTGAVGRSTYYPDSVKGRFTISRDNSKNTLYLQMNSLRAEDTAVYYCARWGDEGFDIWGQGTLVTVSS
VL: DIQMTQSPSSLSASVGDRVTITCRASQGISNWLAWYQQKPGKAPKLLIYGASSLQSGVPSRFSGSGSGTDFTLTISSLQPEDFATYYCQQYSSFPTTFGQGTKVEIKR
As for B7, the “% inhibition … BT-474, 10 µg/ml IgG” value in experiment [1] was 43.6%.
